# Results reported in patent US12195506B2, “Immunotherapy with A*01 restricted peptides and combination of peptides against cancers and related methods” (Immatics Biotechnologies GmbH, priority 2018, dated 2025).
# Biological target: HLA-A*01:01 (Homo sapiens, UniProt P04439, A114D/A174V/A182V/D101N/D185E/E176A/E190D/L180R/Q94H/R68K/S129P/T187R/V100A/V91M/W191G)
# Assay: MHC binding assay: UV-ligand exchange, ELISA of stabilized MHC complexes (peptide exchange yield)
# Details: binding to HLA-A*01:01, UV-ligand exchange
# Summary of the method: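 Peptide–MHC complexes were formed by UV-induced exchange of a photocleavable ligand for the test peptide. Exchange yield was measured by streptavidin-capture ELISA of 100-fold diluted complexes, detected with HRP anti-β2m at A450. Refolded HLA-A*02:01/MLA-001 monomers at 15-500 ng/ml served as standards.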
row,Substance,Peptide exchange
1,317 (EDLLEVLDMY; listed as Homo sapiens) [compound 317],++ (>20% = ++)
2,318 (YMTSMALNY; listed as Homo sapiens) [compound 318],+++ (>50 = +++)
3,319 (FTDPHIITF; listed as Homo sapiens) [compound 319],++++ (>75% = ++++)
4,320 (QALQDKLQTFY; listed as Homo sapiens) [compound 320],++ (>20% = ++)
5,321 (DGIADASNLSYY; listed as Homo sapiens) [compound 321],++ (>20% = ++)
6,322 (FSELNPLALY; listed as Homo sapiens) [compound 322],++++ (>75% = ++++)
7,323 (KTLQKPVLPLY; listed as Homo sapiens) [compound 323],++ (>20% = ++)
8,324 (RTGIFPYRF; listed as Homo sapiens) [compound 324],++ (>20% = ++)
9,325 (LQKPVLPLY; listed as Homo sapiens) [compound 325],++ (>20% = ++)
10,326 (STSRLTLFS; listed as Homo sapiens) [compound 326],++ (>20% = ++)
11,327 (IMLSVDQHLY; listed as Homo sapiens) [compound 327],+++ (>50 = +++)
12,328 (LLDEDNNIKL; listed as Homo sapiens) [compound 328],++ (>20% = ++)
13,329 (NTDSMTLNNTAY; listed as Homo sapiens) [compound 329],++++ (>75% = ++++)
14,330 (EGELSEGEHWY; listed as Homo sapiens) [compound 330],+++ (>50 = +++)
15,331 (YLYQAPGSLALY; listed as Homo sapiens) [compound 331],++++ (>75% = ++++)
16,333 (LSDPQAELQFY; listed as Homo sapiens) [compound 333],++++ (>75% = ++++)
17,334 (PSSMPECLSY; listed as Homo sapiens) [compound 334],++++ (>75% = ++++)
18,335 (PSSMPECLSYY; listed as Homo sapiens) [compound 335],+++ (>50 = +++)
19,336 (ATNIQLNIDTY; listed as Homo sapiens) [compound 336],+++ (>50 = +++)
20,337 (FTESNQYNIY; listed as Homo sapiens) [compound 337],++++ (>75% = ++++)
21,338 (YSPDSFNVSW; listed as Homo sapiens) [compound 338],++ (>20% = ++)
22,339 (ESMDIFPLGW; listed as Homo sapiens) [compound 339],++ (>20% = ++)
23,340 (SVDSNLVAY; listed as Homo sapiens) [compound 340],+++ (>50 = +++)
24,341 (PANYLGKMTY; listed as Homo sapiens) [compound 341],+++ (>50 = +++)
25,342 (QTYMDGLLHY; listed as Homo sapiens) [compound 342],++++ (>75% = ++++)
26,343 (YFGNYFTYY; listed as Homo sapiens) [compound 343],+ (>10% =+)

row,Substance,Peptide exchange
1,344 (AVNALQSVY; listed as Homo sapiens) [compound 344],++ (>20% = ++)
2,345 (NTMDAVPRIDHY; listed as Homo sapiens) [compound 345],++++ (>75% = ++++)
3,346 (VAGLEAGVLY; listed as Homo sapiens) [compound 346],++ (>20% = ++)
4,347 (SADHPGLTF; listed as Homo sapiens) [compound 347],++ (>20% = ++)
5,348 (DSTDGCLLSF; listed as Homo sapiens) [compound 348],++ (>20% = ++)
6,349 (HLLSVSLYY; listed as Homo sapiens) [compound 349],+ (>10% =+)
7,350 (LTDPQVSYV; listed as Homo sapiens) [compound 350],+++ (>50 = +++)
8,351 (VLDPMLDFY; listed as Homo sapiens) [compound 351],++++ (>75% = ++++)
9,352 (YPVVVAESMY; listed as Homo sapiens) [compound 352],++ (>20% = ++)
10,353 (RLNGSVASY; listed as Homo sapiens) [compound 353],++ (>20% = ++)
11,354 (EIIRYIFAY; listed as Homo sapiens) [compound 354],++ (>20% = ++)
12,355 (MADRGEARL; listed as Homo sapiens) [compound 355],++ (>20% = ++)
13,356 (NSENHILKY; listed as Homo sapiens) [compound 356],++++ (>75% = ++++)
14,357 (MSPDIALLYL; listed as Homo sapiens) [compound 357],+++ (>50 = +++)
15,358 (YMSPDIALLY; listed as Homo sapiens) [compound 358],++++ (>75% = ++++)
16,359 (NKEINYFMY; listed as Homo sapiens) [compound 359],+++ (>50 = +++)
17,360 (RFDDINQEF; listed as Homo sapiens) [compound 360],+ (>10% =+)
18,361 (FTAEEGQLY; listed as Homo sapiens) [compound 361],+++ (>50 = +++)
19,362 (SGALDEAAAY; listed as Homo sapiens) [compound 362],++ (>20% = ++)
20,363 (LTDRDVSFY; listed as Homo sapiens) [compound 363],++++ (>75% = ++++)
21,364 (DTGYLQLYY; listed as Homo sapiens) [compound 364],++++ (>75% = ++++)
22,365 (FVDTKVPEH; listed as Homo sapiens) [compound 365],++ (>20% = ++)
23,366 (ITVDVRDEF; listed as Homo sapiens) [compound 366],+ (>10% =+)
24,367 (LTDTGYLQLY; listed as Homo sapiens) [compound 367],++++ (>75% = ++++)
25,368 (ESAATGQLDY; listed as Homo sapiens) [compound 368],+++ (>50 = +++)
26,369 (AVMEAAFVY; listed as Homo sapiens) [compound 369],+++ (>50 = +++)

row,Substance,Peptide exchange
1,370 (RLSTIRHLY; listed as Homo sapiens) [compound 370],+++ (>50 = +++)
2,371 (WSDSTSQTIY; listed as Homo sapiens) [compound 371],++++ (>75% = ++++)
3,372 (SRSDFEWVY; listed as Homo sapiens) [compound 372],++ (>20% = ++)
4,373 (FHADSDDESF; listed as Homo sapiens) [compound 373],+ (>10% =+)
5,375 (ASSLDSLHY; listed as Homo sapiens) [compound 375],++++ (>75% = ++++)
6,376 (EDDEDEDLY; listed as Homo sapiens) [compound 376],+++ (>50 = +++)
7,377 (YADPSANRDLL; listed as Homo sapiens) [compound 377],++ (>20% = ++)
8,378 (TAKAPSTEY; listed as Homo sapiens) [compound 378],++ (>20% = ++)
9,379 (SLIIDDTEY; listed as Homo sapiens) [compound 379],++ (>20% = ++)
10,380 (VACGNNPVY; listed as Homo sapiens) [compound 380],+++ (>50 = +++)
11,381 (ETSFSTSHY; listed as Homo sapiens) [compound 381],++++ (>75% = ++++)
12,382 (YEPATMEQY; listed as Homo sapiens) [compound 382],++ (>20% = ++)
13,383 (PPDHAVGRTKY; listed as Homo sapiens) [compound 383],++ (>20% = ++)
14,384 (RFRSITQSYY; listed as Homo sapiens) [compound 384],+ (>10% =+)
15,385 (SANALILTY; listed as Homo sapiens) [compound 385],++ (>20% = ++)
16,388 (YTAHVGYSMY; listed as Homo sapiens) [compound 388],++++ (>75% = ++++)
17,389 (YYDLVESTF; listed as Homo sapiens) [compound 389],+ (>10% =+)
18,390 (FSEPFHLIVSY; listed as Homo sapiens) [compound 390],++++ (>75% = ++++)
19,391 (GSNPARYEF; listed as Homo sapiens) [compound 391],++ (>20% = ++)
20,392 (TQHFVQENY; listed as Homo sapiens) [compound 392],++ (>20% = ++)
21,393 (QVWGGQPVY; listed as Homo sapiens) [compound 393],+ (>10% =+)
22,394 (QVPLDCVLY; listed as Homo sapiens) [compound 394],++ (>20% = ++)
23,395 (ILKGGSGTY; listed as Homo sapiens) [compound 395],++ (>20% = ++)
24,396 (LPDPNVQKY; listed as Homo sapiens) [compound 396],++ (>20% = ++)
25,397 (NSAINPLIY; listed as Homo sapiens) [compound 397],++++ (>75% = ++++)
26,398 (YYYDTHTNTY; listed as Homo sapiens) [compound 398],+ (>10% =+)
